Consider one molecule from PMC3595365 (Molecular cell, 2013).

The target of one test is His6-NEDD8 (UniProt Q15843 1-76). The test is described as follows: BLI. (In general: In BLI a coated tip is dipped into the sample, and binding shifts an interference pattern.)
For a further test, the target named is His6-ubiquitin (UniProt P0CG48 1-76). The test is described as follows: BLI.

His6-NEDD8, sequence (Q15843 1-76): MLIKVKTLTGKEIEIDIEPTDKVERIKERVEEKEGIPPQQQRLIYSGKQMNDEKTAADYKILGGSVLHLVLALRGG

As to RHKQEEQDRLLALQLQKEVDKEQM (domain or fragment, UniProt Q8IYW5 439-462, looked up) [GST-RNF168-MIU2 (439-462)], the Kd (in general, the concentration at which binding is half-saturated) in the test with His6-NEDD8 came out at 14 ± 3 µM; in the test with His6-ubiquitin it was 17 ± 3 µM.
